Laboratory results: the supplement of paper PMC10567573

B1: SAT2 (parent)
chain: LTEAEGWHFFCFQGEATRKLAGK
B2: RSPH3 (parent)
chain: FIPAKTGKDVATQILEGELFDFDL

Variants of: B1
Experiment: protein stability index of a GFP-peptide fusion (GPS, HEK-293T) (PSI 1-6); higher = more stable
Settings: c terminus: native
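Note: lentivirally expressed fusions sorted by FACS into six bins by GFP to DsRed ratio, PSI derived from sequencing read proportions per bin multiplied by bin number.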

| Variant | protein stability index |
| --- | --- |
| LTEAEGWHIFCFQGEATRKLAGK [F9I] | 2.23 |
| LTEAEGWHQFCFQGEATRKLAGK [F9Q] | 3.63 |
| LTEAEGWHTFCFQGEATRKLAGK [F9T] | 3.64 |
| LTEAEGWHFFCWQGEATRKLAGK [F12W] | 2.35 |
| LTEAEGWHFFCIQGEATRKLAGK [F12I] | 2.55 |
| LTEAEGWHFFCGQGEATRKLAGK [F12G] | 3.42 |
| LTEAEGWHFFCRQGEATRKLAGK [F12R] | 2.87 |
| LTEAEGWHFFCQQGEATRKLAGK [F12Q] | 4.04 |
| LTEAEGWHFFCAQGEATRKLAGK [F12A] | 3.56 |
| LTEAEGWHFFCCQGEATRKLAGK [F12C] | 3.39 |
| LTEAEGWHFFCFQKEATRKLAGK [G14K] | 2.23 |
| LTEAEGWHFFCFQMEATRKLAGK [G14M] | 1.76 |
| LTEAEGWHFFCFQAEATRKLAGK [G14A] | 2.48 |
| LTEAEGWHFFCFQNEATRKLAGK [G14N] | 2.76 |
| LTEAEGWHFFCFQHEATRKLAGK [G14H] | 1.9 |
| LTEAEGWHFFCFQEEATRKLAGK [G14E] | 2.83 |
| LTEAEGWHFFCFQQEATRKLAGK [G14Q] | 1.96 |
| LTEAEGWHFFCFQIEATRKLAGK [G14I] | 4.25 |
| LTEAEGWHFFCFQYEATRKLAGK [G14Y] | 3.67 |
| LTEAEGWHFKCFQGEATRKLAGK [F10K] | 3.77 |
| LTEAEGWHFQCFQGEATRKLAGK [F10Q] | 3.61 |
| LTEAEGWHFRCFQGEATRKLAGK [F10R] | 3.28 |
| LTEAEGWHFHCFQGEATRKLAGK [F10H] | 3.46 |
| LTEAEGWHFNCFQGEATRKLAGK [F10N] | 3.94 |

| Variant | protein stability index |
| --- | --- |
| LTEAEGWHFYCFQGEATRKLAGK [F10Y] | 1.92 |
| LTEAEGWHFPCFQGEATRKLAGK [F10P] | 4.44 |
| LTEAEGWHFECFQGEATRKLAGK [F10E] | 4.18 |
| LTEAEGWHFFCFQGECTRKLAGK [A16C] | 2.46 |
| LTEAEGWHFFCFQGEYTRKLAGK [A16Y] | 2.03 |
| LTEAEGWHFFCFQGENTRKLAGK [A16N] | 2.67 |
| LTEAEGWHFFCFQGEPTRKLAGK [A16P] | 2.33 |
| LTEAEGWHFFCFQGESTRKLAGK [A16S] | 2.12 |
| LTEAEGWHFFCFQGEITRKLAGK [A16I] | 1.64 |
| LTEAEGWHFFCFQGELTRKLAGK [A16L] | 3.02 |
| LTEAEGWHFFCFQGEATRHLAGK [K19H] | 2.58 |
| LTEAEGWHFFCFQGEATRILAGK [K19I] | 2.39 |
| LTEAEGWHFFCFQGEATRLLAGK [K19L] | 2.93 |
| LTEAEGWHFFCFQGEATRQLAGK [K19Q] | 1.69 |
| LTEAEGWHFFCFQGEATRWLAGK [K19W] | 2 |
| LTEAEGWHFFCFQGEATRFLAGK [K19F] | 1.94 |
| LTEAEGWHFFCFQGEATRMLAGK [K19M] | 1.89 |
| LTEAEGWHFFCFQGEATRTLAGK [K19T] | 2.05 |
| LTCAEGWHFFCFQGEATRKLAGK [E3C] | 1.89 |
| LTLAEGWHFFCFQGEATRKLAGK [E3L] | 1.58 |
| LTIAEGWHFFCFQGEATRKLAGK [E3I] | 3.97 |
| LTFAEGWHFFCFQGEATRKLAGK [E3F] | 1.64 |
| LTTAEGWHFFCFQGEATRKLAGK [E3T] | 2.11 |
| LTEAEGWHFFCFQGKATRKLAGK [E15K] | 3.63 |

| Variant | protein stability index |
| --- | --- |
| LTEAEGWHFFCFQGCATRKLAGK [E15C] | 2.15 |
| LTEAEGWHFFCFQGWATRKLAGK [E15W] | 1.77 |
| LTEAEGWHFFCFQGYATRKLAGK [E15Y] | 2.69 |
| LTEAEGWHFFCFQGAATRKLAGK [E15A] | 1.59 |
| LTEAEGWHFFCFQGNATRKLAGK [E15N] | 1.86 |
| LTEAEGWHFFCFQGTATRKLAGK [E15T] | 2.72 |
| LTEAEGWHFFVFQGEATRKLAGK [C11V] | 2.37 |
| LTEAEGWHFFLFQGEATRKLAGK [C11L] | 2.42 |
| LTEAEGWHFFAFQGEATRKLAGK [C11A] | 2.09 |
| LTEAEGWHFFNFQGEATRKLAGK [C11N] | 3.04 |
| LTEAEGWHFFIFQGEATRKLAGK [C11I] | 1.66 |
| LTEAEGWHFFWFQGEATRKLAGK [C11W] | 1.57 |
| LTEAEGWHFFDFQGEATRKLAGK [C11D] | 3.45 |
| LTEAEGWHFFHFQGEATRKLAGK [C11H] | 2.99 |
| LTEAEGWHFFYFQGEATRKLAGK [C11Y] | 2.12 |
| LTEAEGWHFFSFQGEATRKLAGK [C11S] | 3.68 |
| LTEAEGWHFFPFQGEATRKLAGK [C11P] | 3.7 |
| LTEAEGWHFFKFQGEATRKLAGK [C11K] | 3.5 |
| LTEAEGWCFFCFQGEATRKLAGK [H8C] | 1.78 |
| LTEAEGWDFFCFQGEATRKLAGK [H8D] | 3.44 |
| LTEAEGWTFFCFQGEATRKLAGK [H8T] | 3.27 |
| LTEAEGWQFFCFQGEATRKLAGK [H8Q] | 2.15 |
| LTEAEGWIFFCFQGEATRKLAGK [H8I] | 2.19 |
| LTEAEGWEFFCFQGEATRKLAGK [H8E] | 3.41 |

| Variant | protein stability index |
| --- | --- |
| LTEAEGWKFFCFQGEATRKLAGK [H8K] | 3.24 |
| LTEAEGWVFFCFQGEATRKLAGK [H8V] | 1.91 |
| LTEAEGWGFFCFQGEATRKLAGK [H8G] | 3.25 |
| LTEAEPWHFFCFQGEATRKLAGK [G6P] | 2.78 |
| LTEAEVWHFFCFQGEATRKLAGK [G6V] | 2.15 |
| LTEAEFWHFFCFQGEATRKLAGK [G6F] | 1.79 |
| LTEAERWHFFCFQGEATRKLAGK [G6R] | 3.03 |
| LTEAEQWHFFCFQGEATRKLAGK [G6Q] | 2.6 |
| LTEAECWHFFCFQGEATRKLAGK [G6C] | 1.5 |
| LTEAEYWHFFCFQGEATRKLAGK [G6Y] | 1.61 |
| LTEAETWHFFCFQGEATRKLAGK [G6T] | 2.03 |
| LTEAESWHFFCFQGEATRKLAGK [G6S] | 2.27 |
| LTEAENWHFFCFQGEATRKLAGK [G6N] | 2.56 |
| LTEAEIWHFFCFQGEATRKLAGK [G6I] | 2.49 |
| LTEAEEWHFFCFQGEATRKLAGK [G6E] | 3.1 |
| LTEAEMWHFFCFQGEATRKLAGK [G6M] | 2.05 |
| LTEAEGWHFFCFAGEATRKLAGK [Q13A] | 2.14 |
| LTEAEGWHFFCFRGEATRKLAGK [Q13R] | 1.93 |
| LTEAEGWHFFCFNGEATRKLAGK [Q13N] | 2.72 |
| LTEAEGWHFFCFLGEATRKLAGK [Q13L] | 1.67 |
| LTEAEGWHFFCFHGEATRKLAGK [Q13H] | 1.56 |
| LTEAEGWHFFCFVGEATRKLAGK [Q13V] | 1.9 |
| LTEAEGWHFFCFMGEATRKLAGK [Q13M] | 1.07 |

Variants of: B2
Experiment: as above
Settings: c terminus: a fixed tail appended

| Variant | protein stability index |
| --- | --- |
| AIPAKTGKDVATQILEGELFDFDL [F1A] | 4.14 |
| CIPAKTGKDVATQILEGELFDFDL [F1C] | 3.55 |
